The values below come from patent US20180355064A1 (published 2018).

In assay [1] the target is cynomolgus monkey CD3 epsilon 1-26_Fc fusion protein. In words: SPR. (In general: Surface plasmon resonance follows binding to a sensor surface in real time, without labels.)
Assay [2] has as its target human CD3 epsilon 1-26_Fc fusion protein. In words: SPR.

By Kd is commonly meant a measure of binding affinity in units of concentration.

B1: humanized 9G7 best-framework antibody (antibody, V domains shown)
VH: EVQLVESGGGLVQPGGSLRLSCAFSGLSLSTSGKGVGWIRQAPGKGLEWLAHIWWDDDKRYNPALKSRLTISKDTSKNTVYLQMNSLRAEDTAVYYCARIELGRSYVMDYWGQGTLVTVSS
VL: DIQMTQSPSSLSASVGDRVTITCRASQDVITSVAWFQQKPGKAPKLLIYSASYRYTGVPSRFSGSGSGTDFTLTISSLQPEDFATYYCQQHYTIPLTFGQGTKVEIKR
Take B1: the Kd in assay [1] amounted to 1 nM; in assay [2] it was 0.4 nM.

B2: humanized 9G7 best-fit antibody (antibody, V domains shown)
VH: QVTLKESGPTLVKPTQTLTLTCTFSGLSLSTSGKGVGWIRQPPGKALEWLAHIWWDDDKRYNPALKSRLTITKDTSKNQVVLTMTNMDPVDTATYYCARIELGRSYVMDYWGQGTLVTVSS
VL: DIQMTQSPSSLSASVGDRVTITCQASQDVITSVAWYQQKPGKAPKLLIYSASYRYTGVPSRFSGSGSGTDFTFTISSLQPEDIATYYCQQHYTIPLTFGQGTKLEIKR
For B2, the dissociation constant Kd in assay [1] amounted to 3.2 nM; in assay [2] it was 0.5 nM.

B3: chimeric 9G7 antibody (antibody, V domains shown)
VH: QVTLKESGPGILQPSQTLSLTCSFSGLSLSTSGKGVGWIRQPSGKGLEWLAHIWWDDDKRYNPALKSRLTISKDTSSNQVFLKIASVDTADTATYYCARIELGRSYVMDYWGQGTTVTVSS
VL: DIVMTQSHKFMSTSVGDRVSISCKASQDVITSVAWFQQKPGQSPKLLIYSASYRYTGVPDRFTGSGSGTDFTFTISSVQAEDLAVYYCQQHYTIPLTFGAGTKLELKR
For B3, the Kd is 1 nM in assay [1] and 0.4 nM in assay [2].
